Consider eight molecules from patent publication US12077763B2, “RNA-based control of powdery mildew” (Greenlight Biosciences, Inc., priority 2021, dated 2024).

B1: GS1835: dsRNA trigger SEQ ID NO 159; gene target Probable glutamine--fructose-6-phosphate aminotransferase [isomerizing] (nucleic acid)
DNA: CCGATGACAAGGGGAGATCCTTTTCTTGCCGCAATTACTTCATGGGGATAATGGACTGATTTTAGTAGAAGTCCAAATGCTCCTTGCAGCTCCTTGATGACGGCCTTAGCTAAGTCCGTAAAAGTAATTGTTGGGTGCTGGTCATATATATACTTAGCAAGCTTGGCAATACACTCAGTATCAGTCTCTGTCTCAAATTTATGGCCCTTTGAGATAAGTAGGGTTTTGAGCTCTTTATAGTTTATTATGATTCCATTATGAACAACACTGAACTGCCATTTGGGGTCACTACGATGAGGATGGCAATTCAATCTTGATGGAGGGCCATGGGTGGCCCATCTAGTATGTGCAATACCAGCATGGGAGTCAAAAACTTTGGAGTTATCTAGTTGCGACTCCTGGACAAGTTGCTTTAATTTTGCAACCTTTCCAACTTCTTTGAACGCAAAAACTTCATCTTTTTCATCCCCGTCAATTGCGAGCCCGGCACTGTCGTAGCCACGGTATTCCAAGCGAGAGAGACCGTTGACAAGTGTTTCAAGAATGTGTTTGCGATCCTTTTCAATGAGATAATTAATATAGCCAAAGAT
B2: GS1840: dsRNA trigger SEQ ID NO 196; gene target Ubiquitin-conjugating enzyme E2-16 kDa (nucleic acid)
chain: TTGACTCTAGTTTTAAATACACATAAATGTTTGCTCAAACTATCTAGAGATTTTGCGTCTTGTAAAAAAATACTATATATGAAATATTATTGTGTACTATTGATGTATGAACTCGATGTGAGGTTTAAAATCTTATTGCTGCCATAGATAATCAAAAAATTATATTAATCCTATCCTTTTGGAACGATTCCTAATAGCAGATGTGTGTTCGTCTCTGTCCTTTGAATGACTCATTTCAGTCCAAATCTTCGTTGCTAATTCATCCACTCATTTCATAGCATATTTTTTTGTCGCTTTAACCGCCTCTTCATTAAATTCATTCCTGTTATTCCTGTATCTATCTGCTAATGCCGTTTCTACCGCATCATCAAGTACCGGCTCGGTCAGCATTTGCTGCGTTGCCATCAAAATATTGATGATTCGAGATGATGGTTTCCAGGCATCTGGTTTGAGAGCACCAATACACATACTACCCTGCTCATCAAAAGTCACATTTGGATGGTAGATACGAGTTTTGAACGATAGTTTTGGTGGCTTAAAAGGATAGTCTGAGGGGAGCGTTAAAAGAAGTTCAAAGTTA
B3: GS1834: dsRNA trigger SEQ ID NO 189; gene target Tubulin beta-2 chain (nucleic acid)
DNA: CTCGTCCATTCCTTCTCCAGTATACCAATGTAAGAAAGCTTTTCTTCTAAACATAGCTGTGAATTGATCCCCAACGCGCTTAAAGAGTTCTTGAATGGAAGTGGAGTTTCCTACAAATGTAGATGACATCTTAAGACCACGAGGTGGAATAGAGCAGAGTGCGGTTTGTACATTATTAGGGATCCACTCGACAAAATATGCAGAGTTCTTATTTTGTACATTGCGCATTTGGTCCTCTACTTCTTTCATTGATACCTTACCTCGAAATATTGCTGAACATGTTAAATAGCGCCCGTTTCGGAAATCAGACGCTGCCATCATATTTTTGGGGTCGTACATTTGCTGAGTCAACTCGGGAACAGTAACTGCGCGGAAAGAGTGGGCACCGCGACTTGTTAGAGGAGCAAATCCAACCATAAAAAAATGAAGACGAGGAAATGGAACCATGTTAACTGCTAACTTTCGAAGATCTGAGTTGAGTTGACCTGGGAAACGAAGACATGTTGTTACACCTGACATGACTGCAGATACCAAATGATTCAAATCACCATATGATGGGTTTGAAAGCTTTAAAGTTCTCATACATATTT
B4: GS1836: dsRNA trigger SEQ ID NO 121; gene target Integral membrane protein/Pth11 homolog (nucleic acid)
DNA: GCTTTTCAATGTCGACCTGCAAACTACCTTTGGCAACAACTTGATTCAAAATTATATTCTGGAAGCTGTTTGAGCAAGGAGAGTATAGCCGATATTATATATGCTCATGCATCTATAAGTTGTTTAATTGACTGGATCTTTGGGATATTACCGATTTTAATTCTCTGGAAACTCGACATGAAGTTCAAGACCAAGCTCTCTATAATGATCGTTCTTTCATTAAGTATAGTAGCCTCTATAGCTACTGTTATACGTATTATTTACCTCCATATTCTTAAGAATGTGTCACAATCCGGTTGGGATGGTTTTGGATTAATAAAATGGTCTTTACTAGAACCAGCCATTGCCTTGACAGCTGCAAATATTGCAACTCTCAGGCCACTTACGCAAAAGTTATTTTCAAAAAAACGACGACCATCTAAATCACAACCACCTAAGCTTTCTCTCAATGCTATTCGGGGCTTAAGTCGGAAGTCTTCAGTATGTTGTTCAAGTGAATTTGCAGATATGTTAGGGCTAGCAGTATCACCTGGCGTGAAAACTCGAGTCTATGCTGATAGAAGACTTGATAACACTATCCAAAAAAGA
B5: GS1843: dsRNA trigger SEQ ID NO 184; gene target Ubiquitin-like protein SMT3 (nucleic acid)
chain: ATAAACCTGCCTTAGATACTAAATCAGGAGTTGGCGTTTTATGGGATTCTATTAGAGTTGTAAATTTCAAAGATACTTTGATTGGATTTTCTTAGATTAACCTCGACGAGAATCGATTTTCTAGATTTTTGGCTAAATCATACGAATTCAAATTTTCTTAGTAAATTGGACAATGCGCGCCGTAAACATATCGGGATGAAATTTTTTAATAATAAAATCAATTGAAAATAATAAATTTATATCCTATTTAATCACCGCCAACAAGAAGTTCGTTTTCCTTACCTACCTAGAATTAGTTTTTAGATATCGTTCGATGTTTCGTGAATTTCAAATCCAGATGTTGCCGCCGATTTGTTCTTGATGCACCTCTAGCGTATCTCCATCTGCCATATCGAGAAACTCAGGACTATCAGTTTGTTGAACACGACTCCCTTCAAATAAGAATCGAACAGAAGAAAGTGATTTCCCTTGCCTCTCACAGAACGCGTCCATCAATTTCTTAAGTGGTGTTGTTCGTTTAATTTTGAAGAAGACTTCATTATTGTTATCTGTAACCTTGATATTTAAATGTTCA
B6: GS1839: dsRNA trigger SEQ ID NO 194; gene target Thioredoxin (nucleic acid)
chain: CTGACCGGGGCGCTATTACGATTAAATGAGCTGTTTTCCCCAGCGCTATAAGCATCCAGGGAGAATAAGGTTACAAAATATAATCCGAAAAAAGATAAAAAAGTATTTATCAATTGTTTCAAATCGAATGGCTTAGACAACTGTGTACTCGGACTCTTAGTACTCCCTAGAGTTCGTCCTTCTGAGGTATATGATAGACCTTCTAGGCCTGCAAGTCTGATGACAGACTCGATAGCAGTTCTTAAAGTAGACTGATCAGCGCCACGGATCGTATTGGCAATAGAGCCAGATCGAAAGATAATGAAGCTGGGAAGTGCTCTAACTCCATAACGCTGAGAAATATCCTGGTGATTGTCTACATTGACCTTGACAAAGGTGATCCTGTTCGGTTTCGAGTATTTGGAAGCAAGACTTTCGAAGGTGGGAGCAATAGCATTACATGGGCCGCACCAGTCGGCATAAACTAACCCAGCCATTAGTAGATTTAGTTAATCGGTGACGACTACTTTTGAAGAGTTCAAAATTTTGTCAAACTGAGATGAGGATCTGATACGGATAGACATGCTTTCTTTCTGTTCAA
B7: GS1842: dsRNA trigger SEQ ID NO 130; gene target AP-1 complex subunit gamma-1 (nucleic acid)
chain: GCCAATGCCTTGAGCGTCTGAACAAGACTTCCAGTGAGTGGTCTAAACTTCTCTACTATATTCTCTTCACCTTCTTCATCAGCTTCTATGTCGGCCTCGCAAAGGCTAGTGACAAGTGTCAAGCCACAAAGGAGAACTCCATGATTTCGATCTGAAATAAGTGTTTCTGCTTTTTCGAAGAAATGCTCTTGAAGATCTGGCACTTTCTTGCAAATACGCATAGCACATAGAGCAGCCTTCTTACGAATATATGGGTTTGCTGTGGAAAGGAGATTTTCTATCTCTGGAAAGAGATCTCTTGACATTTCGATTGATGCGATGTTGCCTAGCGTACAGAGGGCTAGTCCGACTATGTATTGATTAGAGTGATTGAGATCGTTCTTTAAGGAGTTTGTAACTAAGGTAAGAACCTCTTGATTTTCGTCTAAAAGCAACATGGTCCCTAAGTAACCAAGGCGTTTGTCGGCGAAACGAGGAGACGCAAGTAATTTAAGGCATTCTATCTGGCCAAAGTGGGTTCTTTCCCCAAGTGTGAAGAGATATAACAACTTTGCAACGTTATTACGTCTGACATTG
B8: GS1837: dsRNA trigger SEQ ID NO 199; gene target UDP-glucose: glycoprotein glucosyltransferase 1 (nucleic acid)
DNA: AAAATCTAGGCAAATCCTTGAAAAACTCAGAGCTTTTTTTTTCAATAAAATTCAAGTCAAAAAAATTCAGATCTTTTCGATTTTCAGGAATAATCAATTTATTTCTGCGATTTATCGCTTGATTTAAAAATATACTAGGCACCCAAAAATCTTGACTTCTCACATTTTCTGTCCCAAGGACAATAGTTTGCTGAATTAATTGTAGATCTGTATATATCTGTTGACTCATTTTCTGAAGCCAGAATTCATCTTTCGGTATAACAACGCCATTAATGATAACTGGGGGAACAAGGTCATCTGCACAAATCCTGTCTACCCATTTTTGGGACGATTGAATTCGACTCTCGAGCTCATCTGATTTCAAAACTTCGTCGAAAATTATTCGGGTTTTATTAGTCTTAATTTTTGCTTTCTGGGTGATTTGGTCGAATACATCCTTACTGTTTAAGCTAAGCTTTGATTCATTTTGTGACCGTAAATATGCTATTGCAGTTTGTAATCCATAAATTTCAATAAGGTGATAAATTACTTTTGCTTCGATTGCAGCATTTGAGTTTCTGATGACGGGAATGAGACCAATTCGGAT

The subject of the first series is E. necator. As to the kind of experiment: Leaf disc assay, dry inoculum (settling tower), decrease in disease severity / hyphal growth (Example 2). Conditions: decrease in disease severity (hyphal growth) relative to untreated control; time point 1 (untreated control hyphal growth ≥50%); value ± SE.
Consider B1, for which the “% decrease =/− SE TP1” value was found to be 25 ± 6%.

Regarding B2, the “% decrease =/− SE TP1” value stood at 21 ± 6%.

For the molecule B3, the “% decrease =/− SE TP1” value is 8 ± 4%.

As to B4, the “% decrease =/− SE TP1” value came to 23 ± 6%.

With B5, the “% decrease =/− SE TP1” value is given as 20 ± 5%.

For the molecule B6, the “% decrease =/− SE TP1” value was found to be 20 ± 7%.

Regarding B7, the “% decrease =/− SE TP1” value came to 6 ± 7%.

For B8, the “% decrease =/− SE TP1” value is 15 ± 7%.

Staying with this series, now noted: decrease in disease severity (hyphal growth) relative to untreated control; time point 2; value ± SE.
As for B1, the “% decrease =/− SE TP2” value amounted to 24 ± 6%.

Regarding B2, the “% decrease =/− SE TP2” value is on record as 11 ± 10%.

For the molecule B3, the “% decrease =/− SE TP2” value came out at 15 ± 6%.

B4: the “% decrease =/− SE TP2” value amounted to 22 ± 6%.

For B5, the “% decrease =/− SE TP2” value is 16 ± 8%.

As to B6, the “% decrease =/− SE TP2” value turned out to be 18 ± 7%.

For B8, the “% decrease =/− SE TP2” value is 18 ± 8%.
